Results reported in paper PMC10629583, “Specific inhibition of an anticancer target, polo-like kinase 1, by allosterically dismantling its mechanism of substrate recognition” (Proceedings of the National Academy of Sciences of the …, 2023).
[ ]: non-standard residue; d: D form. The star is where a group is joined. FITC = O=C1OC2(c3ccc(O)cc3Oc3cc(O)ccc32)c2ccc(NC(=S)*)cc21; pT = C[C@@H](OP(=O)(O)O)[C@H](N)C(=O)O; Ahx = NCCCCCC(=O)O

How the values were obtained:
Conditions in all cases: both partners purified
[1] = target: T1, Plk1 polo-box domain, PBD1 (residues 345–603) WT (human, UniProt P53350 345-603); assay: fluorescence polarisation; direct binding: FITC-Ahx-DPPLHSpTAI-NH2 with different concentrations of recombinant PBD1 WT or mutants
T1 construct: Polo-like kinase 1 (Plk1), polo-box domain, residues 345-603; TEV-PBD1 fragment in pET-Duet-1; A TEV site precedes PBD1 in the insert; also called PBD1 WT; Plk1 PBD; source: E. coli (purified as described for the crystallography construct, Rosetta strain)
T1 sequence (P53350 345-603): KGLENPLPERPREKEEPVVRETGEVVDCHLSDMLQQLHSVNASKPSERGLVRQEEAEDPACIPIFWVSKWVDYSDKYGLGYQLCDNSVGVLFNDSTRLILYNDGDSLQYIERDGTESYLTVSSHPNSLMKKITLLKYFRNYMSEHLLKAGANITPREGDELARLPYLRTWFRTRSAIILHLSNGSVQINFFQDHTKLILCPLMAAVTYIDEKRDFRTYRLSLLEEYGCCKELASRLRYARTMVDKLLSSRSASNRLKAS

[2] = target: T2, PBD1 (residues 345–603) F559R (human, UniProt P53350 345-603, F559R); assay: fluorescence polarisation; inhibition assay: FITC-conjugated ligand (15 nM) mixed with PBD at its EC85 concentration, competitor varied; read about 30 min after reaction, 384-well format
T2 construct: Polo-like kinase 1 (Plk1), polo-box domain, residues 345-603, F559R; also called F559R mutant; source: E. coli (purified as described for the crystallography construct, Rosetta strain)
T2 sequence (P53350 345-603 F559R): as the sequence (P53350 345-603) above, with F215R counted along it

[3] = target: T3, PBD1 (residues 345–603) F559E (human, UniProt P53350 345-603, F559E); assay: as above
T3 construct: Polo-like kinase 1 (Plk1), polo-box domain, residues 345-603, F559E; also called F559E mutant; source: E. coli (purified as described for the crystallography construct, Rosetta strain)
T3 sequence (P53350 345-603 F559E): as the sequence (P53350 345-603) above, with F215E counted along it

[4] = target: T4, PBD1 (residues 345–603) F559K (human, UniProt P53350 345-603, F559K); assay: as above
T4 construct: Polo-like kinase 1 (Plk1), polo-box domain, residues 345-603, F559K; also called F559K mutant; source: E. coli (purified as described for the crystallography construct, Rosetta strain)
T4 sequence (P53350 345-603 F559K): as the sequence (P53350 345-603) above, with F215K counted along it

[5] = target: T5, PBD1 (residues 345–603) F559D (human, UniProt P53350 345-603, F559D); assay: as above
T5 construct: Polo-like kinase 1 (Plk1), polo-box domain, residues 345-603, F559D; also called F559D mutant protein; source: E. coli (purified as described for the crystallography construct, Rosetta strain)
T5 sequence (P53350 345-603 F559D): as the sequence (P53350 345-603) above, with F215D counted along it

Measured: binding result

B1: FITC-Ahx-DPPLHSpTAI-NH2 (peptide)
peptide: {FITC-Ahx}-DPPLHS[pT]AI-NH2
SMILES: CC[C@H](C)[C@H](NC(=O)[C@H](C)NC(=O)[C@@H](NC(=O)[C@H](CO)NC(=O)[C@H](Cc1c[nH]cn1)NC(=O)[C@H](CC(C)C)NC(=O)[C@@H]1CCCN1C(=O)[C@@H]1CCCN1C(=O)[C@H](CC(=O)O)NC(=O)CCCCCNC(=S)Nc1ccc2c(c1)C(=O)OC21c2ccc(O)cc2Oc2cc(O)ccc21)[C@@H](C)OP(=O)(O)O)C(N)=O
notes: also called FITC-conjugated phosphopeptide; FITC-conjugated ligand
binds: all assays above
